# Laboratory results as given in patent US7192733B2, “Methods and means for modulating PGE synthase activity” (Karolinska Innovations AB, priority 1998, dated 2007).
# T1: human PGE synthase (Homo sapiens, UniProt O14684)
# T1 construct: made in house; host or cells: E. coli BL21 (DE3) pLysSL, vector pSP19T7LT; membrane fraction
# T1 sequence (O14684 1-152): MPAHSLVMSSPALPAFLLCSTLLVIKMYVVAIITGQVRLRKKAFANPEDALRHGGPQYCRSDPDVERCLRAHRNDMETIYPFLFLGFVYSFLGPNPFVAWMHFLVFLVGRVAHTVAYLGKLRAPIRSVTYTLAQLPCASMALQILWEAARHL
# How the values were obtained:
# [1] = tested on: 17.5 kDa protein from sheep seminal vesicles (PGE synthase activity); settings: read-out: Km for PGH2; cited from earlier work
# [2] = tested on: 180 kDa protein from sheep seminal vesicles (PGE synthase activity); settings: larger (180 kDa) protein; read-out: Km for PGH2; cited from earlier work
# [3] = target: T1, human PGE synthase; assay: PGE synthase enzyme assay (inhibition of PGE2 formation from PGH2); type: biochemical; settings: 1 mM for 5 min prior to incubation; membrane fraction from bacteria expressing PGE synthase
# Method: (§1) The protein sample was diluted in potassium inorganic phosphate buffer (0.1 M, pH=7.4) containing 2.5 mM reduced glutathione. The reaction (total volume=100 μl) was started by the addition of 10 μM PGH2 with or without 0.1 μCi 3H PGH2 and terminated with 60 μl acetonitrile/HCl, lowering the pH to 3.2. In order to determine the formation of either PGF2α, PGE2 or PGD2, an aliquot (60 μl) was analyzed by reverse-phase-HPLC combined with UV detection (195 nm) and/or radioactivity detection using an online β-RAM detector (Inus System, Inc.). The reverse-phase HPLC column was Nova-Pak C18 (3.9×150 mm, 4 μm particle size) obtained from Waters. The mobile phase was water, acetonitrile and trifluoroacetic acid (70:30:0.007, by vol) with a flow rate of 1 ml/min.
# (§2) For analysis of 12-HHT, a mobile phase of methanol, water and acetic acid (70:30:0,01, by vol) was used and UV detection at 236 nm. The amounts of produced PGE2 and 12-HHT were quantified by integration of the areas under the eluted peaks at 195 and 236 nm, respectively.
# (§3) The membrane fraction (0.02 mg total protein/ml) isolated from bacteria expressing PGE synthase was incubated for 2 min in the presence of PGH2 (10 μM including 1 μCi 3H PGH2) and reduced glutathione (2.5 mM).
# [4] = tested on: PGE synthase expression in A549 cells; assay: Induction of PGE synthase protein in A549 cells, Western blot; type: cell-based, human; settings: 1 ng/ml, 24 h
# Method: Samples were diluted and boiled for two min in SDS-containing sample buffer (Laemmli, U. K. (1970) Nature 227, 680–5). Proteins were separated through 14% polyacrylamide gels (Novex) and electroblotted (Towbin, H., et al.(1979) PNAS USA 76, 4350–4) onto PVDF (Pall) membranes. Transfer efficiency was visualized using pre-stained standards (Novex). Membranes were then soaked for 1 h at 25° C. in Tris-buffered saline (100 mM Tris-HCl, pH=7.5, 150 mM NaCl) containing 0.1% (v/v) Tween and 5% (w/v) non-fat dried milk. The membrane was subsequently washed twice in 0.1% T-TBS followed by 1 h incubation at 25° C. with the indicated antiserum (1:2000 dilution) in 0.05% (v/v) T-TBS and 2% (w/v) non-fat dried milk. […]
# In order to investigate whether or not PGE synthase may also be regulated by this cytokine, A549 cells were cultured for 24 h in the presence of 1 ng/ml IL-1β. Normal cells as well as cells treated with IL-1β were subsequently analyzed for PGE synthase expression by SDS-PAGE followed by Western blotting.
# Total protein corresponding to 0.2×10^6 cells grown for 24 h in the presence (1 ng/ml) or absence of IL-1β was fractionated by SDS-PAGE and transferred to PVDF membrane. […] Also analyzed was the commercial available, partly purified, PGE synthase from sheep seminal vesicles (6 μg) as well as the membrane fraction from bacteria expressing human PGE synthase (5 μg).
# [5] = tested on: PGH2; assay: PGE synthase activity of fractions from cells expressing recombinant protein (PGH2 to PGE2, RP-HPLC); type: biochemical; settings: for PGE synthase activity: membrane fraction or microsomes of cells expressing the control protein
# Method: as §1, §2, §3
# In this experiment the various dilutions of the membrane fraction obtained from bacteria expressing PGE synthase were incubated in the presence of PGH2 (10 μM) and GSH (2.5 mM) for 2 min. The PGE2 formation was analyzed and quantified by RP-HPLC and UV detection at 195 nm as described in Materials and Methods above.
# The membrane fraction obtained from bacteria expressing PGE synthase (0.02 mg/ml) was incubated with PGH2 for the indicated times in the presence (filled circles) or absence (open circles) of glutathione. Filled triangles represent non-enzymatic (buffer only) PGE2 formation after incubation with PGH2. The product formation was analyzed by RP-HPLC and PGE2 was detected and quantified using UV absorbance at 195 nm.
molecule,measurement,setting,value
"CCCCC[C@H](O)/C=C/[C@@H]1[C@@H](C/C=C\CCCC(=O)O)[C@@H]2C[C@H]1OO2 (relative stereo) [PGH2, 15(S)-hydroxy-9α, 11α-peroxidoprosta-5-cis-13-trans-dienoic acid]",Km,[1],40 µM
same,Km,[2],150 µM
CCN1C(=O)C=CC1=O [N-ethylmaleimide],enzyme activity after treatment of the membrane fraction,[3],abolished
IL-1β: proinflammatory cytokine interleukin-1β,PGE synthase protein expression,[4],induced
"MGST2: microsomal glutathione S-transferase 2 expressed in Sf9 cells, microsomes [reference compound]",PGE synthase activity,[5],no PGE synthase activity
"ratMGST1: rat microsomal glutathione S-transferase 1 expressed in bacteria, control membrane fraction (protein, UniProt P08011 2-155, looked up) Microsomal glutathione …: ADLKQLMDNEVLMAFTSYATIILAKMMFLSSATAFQRLTNKVFANPEDCAGFGKGENAKKFLRTDEKVERVRRAHLNDLENIVPFLGIGLLYSLSGPDLSTALIHFRIFVGARIYHTIAYLTPLPQPNRGLAFFVGYGVTLSMAYRLLRSRLYL",PGE synthase activity,[5],no PGE synthase activity
"PGE synthase: human PGE synthase (SEQ ID NO: 2) expressed in E. coli, tested as bacterial membrane fraction (protein, listed as Homo sapiens) MPAHSLVMSSPALPAFLLCSTLLVIKMYVVAIITGQVRLRKKAFANPEDALRHGGPQYCRSDPDVERCLRAHRNDMETIYPFLFLGFVYSFLGPNPFVAWMHFLVFLVGRVAHTVAYLGKLRAPIRSVTYTLAQLPCASMALQILWEAARHL",glutathione dependent PGE synthase activity,"[5]; bacterial membrane fraction, PGH2, reduced glutathione",0.25 µmol/min/mg
same,deduced specific activity,[5]; estimating that 1% of the bacterial membrane protein is MGST1-L1,25 µmol/min/mg
same,specific activity under linear conditions (subtracting background formation),"[5]; membrane fraction 0.02 mg/ml, PGH2 10 μM, GSH 2.5 mM",250 nmol/min/mg
